Where a chain is given by its changes, count along the chain named.
Columns and labels:
Details in all cases: protein: recombinant, tags: N-term Twin-Strep-tag, C-term 6xHis
L7Ae [1] = target: L7Ae (Archaeoglobus fulgidus (printed A. …, UniProt O29494 1-119)); experiment: SPR; SPR: 10 mM HEPES pH 7.4, 150 mM NaCl, 1 mM MgCl2, 0.05% P20, 0.25 mM TCEP, 0.1 mg/ml BSA, 25 ug/ml yeast tRNA, 25 C; EMSA: 10 mM HEPES-KOH pH 7.5, 140 mM KCl, 10 mM NaCl, 1 mM MgCl2, 0.1 mM TCEP, 0.01% Tween-20, 10 ug/ml yeast tRNA (1x of the printed 5x buffer)
dL7Ae [2] = target: dL7Ae (Archaeoglobus fulgidus (printed A. …, UniProt O29494 1-119, E34K;K37E;R41E;I88G;E89G;V90G;P91G;C92S)); experiment: as above
dL7Ae [3] = target: dL7Ae (Archaeoglobus fulgidus, UniProt O29494 2-119, E34K;K37E;R41E;I88G;E89G;V90G;P91G;C92S); experiment: SPR (Biacore T200, RNA captured, protein analyte); SPR running buffer: 10 mM HEPES pH 7.4, 150 mM NaCl, 0.05% Surfactant P20, 1 mM MgCl2, 0.25 mM TCEP, 0.1 mg/ml BSA, 25 ug/ml yeast tRNA, 25 C; RNA captured by its 3' docking sequence on biotinylated 2'-OMe RNA
L7Ae [4] = target: L7Ae (Archaeoglobus fulgidus, UniProt O29494 2-119); experiment: as above
L7Ae, sequence (O29494 2-119): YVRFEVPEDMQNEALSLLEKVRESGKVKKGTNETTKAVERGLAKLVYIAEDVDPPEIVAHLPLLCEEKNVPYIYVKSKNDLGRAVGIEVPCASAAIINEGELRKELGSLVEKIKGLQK

L7Ae (Archaeoglobus fulgidus, sequence (O29494 whole entry): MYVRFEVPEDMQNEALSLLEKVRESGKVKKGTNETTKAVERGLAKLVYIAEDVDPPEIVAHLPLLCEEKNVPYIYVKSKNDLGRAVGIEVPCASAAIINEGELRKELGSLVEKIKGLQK
dL7Ae, sequence (O29494 2-119 E34K/K37E/R41E/I88G/E89G/V90G/P91G/C92S): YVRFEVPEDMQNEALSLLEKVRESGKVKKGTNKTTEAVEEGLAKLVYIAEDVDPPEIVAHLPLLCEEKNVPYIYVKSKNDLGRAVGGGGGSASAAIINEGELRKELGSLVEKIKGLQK
dL7Ae (Archaeoglobus fulgidus, sequence (O29494 whole entry E34K/K37E/R41E/I88G/E89G/V90G/P91G/C92S): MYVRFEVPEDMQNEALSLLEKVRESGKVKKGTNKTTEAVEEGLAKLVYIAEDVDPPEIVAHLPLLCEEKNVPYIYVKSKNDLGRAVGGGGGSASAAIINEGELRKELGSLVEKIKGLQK

B1: Box C/D Kt (Kt_SPR) (structured_RNA)
RNA: GGAUCGCGUGAUCCGAAAGGUGACGAUCCAAAUCGACGAAAGACACAGAACG
Kd (L7Ae [1]; hairpin with kink-turn): 0.0213 nM | binding result (dL7Ae [2]; hairpin with kink-turn): no binding | binding result (dL7Ae [3]; hairpin with kink-turn): no binding | Kd (L7Ae [4]; hairpin with kink-turn): 0.0213 nM

B2: CS1-M1 (structured_RNA)
RNA: GGUGGCUGAGAAAGGCGAAAGCCUUGUGAUGCCAUCAAAUCGACGAAAGACACAGAACG
Kd (L7Ae [1]; hairpin): 1.81 nM

B3: CS2 (structured_RNA)
RNA: GGAUGCAGAGAACGAAAGUUCCAUGACGCAUCCAAAUCGACGAAAGACACAGAACG
Kd (L7Ae [1]; hairpin, asymmetric internal loop (putative kink-turn)): 0.00571 nM

B4: dKt (dKt_SPR) (structured_RNA)
RNA: GGCUGGGGCGUCAUCCGAAAGGUGCCCCAGCCAAAUCGACGAAAGACACAGAACG
binding result (L7Ae [1]; hairpin, defective kink-turn): no binding | binding result (dL7Ae [2]; hairpin, defective kink-turn): no binding | binding result (dL7Ae [3]; hairpin, defective kink-turn): no binding | binding result (L7Ae [4]; hairpin, defective kink-turn): no binding

B5: CS2-M3 (structured_RNA)
RNA: B3 RNA with G25U
Kd (L7Ae [1]; hairpin): 200 nM

B6: CS1 (structured_RNA)
RNA: B2 RNA with U7A, U30G
Kd (L7Ae [1]; hairpin, internal loop): 1.49 nM

B7: CS2-M1 (structured_RNA)
RNA: B3 RNA with G8A
binding result (L7Ae [4]): binds

B8: CS2-M2 (structured_RNA)
RNA: B3 RNA with A9C
binding result (L7Ae [4]): no binding

B9: CS2-M4 (structured_RNA)
RNA: B3 RNA with A26C
binding result (L7Ae [4]): binds

B10: CS1-M2 (structured_RNA)
RNA: B2 RNA with U7A, G8U, A29U, U30G
binding result (L7Ae [4]): no binding

B11: CS1-M3 (structured_RNA)
RNA: B2 RNA with U7A, A9U, G28U, U30G
binding result (L7Ae [4]): no binding

B12: CS1-M2a (structured_RNA)
RNA: B2 RNA with U7A, G8U, U30G
binding result (L7Ae [4]): binds

B13: CS1-M2b (structured_RNA)
RNA: B2 RNA with U7A, G8A, U30G
binding result (L7Ae [4]): binds

B14: CS1-M2c (structured_RNA)
RNA: B2 RNA with U7A, A29U, U30G
binding result (L7Ae [4]): binds

Reference: PMC8789040, “Directed evolution of orthogonal RNA–RBP pairs through library-vs-library in vitro selection”
